Common to all, as to experiment: FRET or BRET; direct-binding FRET in 384-well plates; rhodamine-labelled design (acceptor) titrated 0 to 1 uM into 10 nM fluorescein-labelled bZIP (donor); 150 mM KCl, 50 mM potassium phosphate pH 7.4, 0.1% Tween-20, 0.1% BSA; 23 °C
Background: In BRET a luciferase serves as donor, and the signal depends on an acceptor being close.

Assay [1] concerns the target CREBZF (human) (UniProt Q9NS37).
Assay [2] has as its target JUN (Homo sapiens, UniProt P05412).
Assay [3] deals with ATF6B (Homo sapiens, UniProt Q99941).
The target of assay [4] is FOS (Homo sapiens, UniProt P01100).
Assay [5] deals with NFE2L3 (human) (UniProt Q9Y4A8).
Assay [6] concerns the target NFIL3 (human) (UniProt Q16649).

Where no end group is shown, it is not given here.

Chain of CREBZF (human) (Q9NS37 whole entry): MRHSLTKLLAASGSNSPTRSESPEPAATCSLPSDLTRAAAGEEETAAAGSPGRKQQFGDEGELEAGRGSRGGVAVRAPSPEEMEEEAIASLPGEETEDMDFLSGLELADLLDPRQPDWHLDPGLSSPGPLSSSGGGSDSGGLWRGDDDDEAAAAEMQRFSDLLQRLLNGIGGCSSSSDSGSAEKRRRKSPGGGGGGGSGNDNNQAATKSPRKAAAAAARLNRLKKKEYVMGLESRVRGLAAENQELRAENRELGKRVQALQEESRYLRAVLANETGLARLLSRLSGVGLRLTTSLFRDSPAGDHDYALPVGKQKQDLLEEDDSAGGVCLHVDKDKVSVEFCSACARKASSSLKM
Chain of NFIL3 (human) (Q16649 whole entry): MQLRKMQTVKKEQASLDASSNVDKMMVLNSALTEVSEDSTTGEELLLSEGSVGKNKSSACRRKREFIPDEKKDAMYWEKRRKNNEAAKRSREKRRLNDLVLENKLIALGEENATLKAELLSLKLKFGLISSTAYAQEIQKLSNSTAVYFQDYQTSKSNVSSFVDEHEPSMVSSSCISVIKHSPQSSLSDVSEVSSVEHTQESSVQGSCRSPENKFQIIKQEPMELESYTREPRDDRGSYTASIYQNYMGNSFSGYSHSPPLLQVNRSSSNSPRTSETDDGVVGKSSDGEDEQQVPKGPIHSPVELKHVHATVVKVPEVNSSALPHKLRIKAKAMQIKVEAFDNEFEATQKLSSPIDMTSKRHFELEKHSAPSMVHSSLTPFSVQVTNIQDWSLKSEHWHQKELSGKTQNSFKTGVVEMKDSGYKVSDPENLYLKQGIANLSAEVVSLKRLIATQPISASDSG
Chain of NFE2L3 (human) (Q9Y4A8 whole entry): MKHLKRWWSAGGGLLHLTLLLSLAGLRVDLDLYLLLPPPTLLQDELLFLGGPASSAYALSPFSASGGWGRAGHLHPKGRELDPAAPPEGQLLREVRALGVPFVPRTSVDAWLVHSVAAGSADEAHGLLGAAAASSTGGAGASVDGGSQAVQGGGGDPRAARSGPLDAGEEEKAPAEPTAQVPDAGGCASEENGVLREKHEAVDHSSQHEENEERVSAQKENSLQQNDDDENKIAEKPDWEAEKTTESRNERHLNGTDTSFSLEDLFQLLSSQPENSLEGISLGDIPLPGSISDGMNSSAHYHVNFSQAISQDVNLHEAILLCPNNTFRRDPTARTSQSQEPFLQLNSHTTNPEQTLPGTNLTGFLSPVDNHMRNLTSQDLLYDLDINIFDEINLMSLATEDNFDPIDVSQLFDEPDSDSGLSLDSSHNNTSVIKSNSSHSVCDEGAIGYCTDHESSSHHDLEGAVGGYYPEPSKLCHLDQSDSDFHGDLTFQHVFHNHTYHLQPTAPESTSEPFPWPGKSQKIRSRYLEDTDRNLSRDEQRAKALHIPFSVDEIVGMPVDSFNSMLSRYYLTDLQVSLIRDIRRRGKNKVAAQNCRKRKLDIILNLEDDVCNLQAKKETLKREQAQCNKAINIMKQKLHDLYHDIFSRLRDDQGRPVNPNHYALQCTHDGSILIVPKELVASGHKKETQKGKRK
Chain of ATF6B (Q99941 whole entry): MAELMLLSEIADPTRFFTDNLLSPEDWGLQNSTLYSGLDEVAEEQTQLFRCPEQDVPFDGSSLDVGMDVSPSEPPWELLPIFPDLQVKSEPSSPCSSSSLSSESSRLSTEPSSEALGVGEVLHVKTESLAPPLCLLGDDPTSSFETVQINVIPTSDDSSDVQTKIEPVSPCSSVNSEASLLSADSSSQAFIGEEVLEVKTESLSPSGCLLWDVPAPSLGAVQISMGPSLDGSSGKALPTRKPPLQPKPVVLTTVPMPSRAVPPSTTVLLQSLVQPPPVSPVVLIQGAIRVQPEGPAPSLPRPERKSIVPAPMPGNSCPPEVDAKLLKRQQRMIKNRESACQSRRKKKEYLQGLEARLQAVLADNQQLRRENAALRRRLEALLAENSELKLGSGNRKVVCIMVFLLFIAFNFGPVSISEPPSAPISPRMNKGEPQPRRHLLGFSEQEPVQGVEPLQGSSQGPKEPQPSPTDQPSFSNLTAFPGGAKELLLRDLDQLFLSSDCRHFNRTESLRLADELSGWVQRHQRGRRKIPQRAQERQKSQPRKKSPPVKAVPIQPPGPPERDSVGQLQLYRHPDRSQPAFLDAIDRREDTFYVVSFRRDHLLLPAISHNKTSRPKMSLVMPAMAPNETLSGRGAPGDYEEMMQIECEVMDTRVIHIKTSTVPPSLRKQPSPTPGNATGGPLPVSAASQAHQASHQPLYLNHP
Chain of FOS (P01100 whole entry): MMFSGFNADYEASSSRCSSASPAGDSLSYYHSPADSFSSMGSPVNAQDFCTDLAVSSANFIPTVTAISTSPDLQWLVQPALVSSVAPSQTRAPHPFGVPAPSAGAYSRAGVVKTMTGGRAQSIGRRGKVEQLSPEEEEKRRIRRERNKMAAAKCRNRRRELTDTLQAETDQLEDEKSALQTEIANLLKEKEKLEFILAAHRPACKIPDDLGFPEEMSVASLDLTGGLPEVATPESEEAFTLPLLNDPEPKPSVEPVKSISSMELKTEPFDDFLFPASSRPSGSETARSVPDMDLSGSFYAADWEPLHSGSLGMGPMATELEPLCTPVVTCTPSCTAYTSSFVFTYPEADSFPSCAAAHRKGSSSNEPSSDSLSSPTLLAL
Chain of JUN (P05412 whole entry): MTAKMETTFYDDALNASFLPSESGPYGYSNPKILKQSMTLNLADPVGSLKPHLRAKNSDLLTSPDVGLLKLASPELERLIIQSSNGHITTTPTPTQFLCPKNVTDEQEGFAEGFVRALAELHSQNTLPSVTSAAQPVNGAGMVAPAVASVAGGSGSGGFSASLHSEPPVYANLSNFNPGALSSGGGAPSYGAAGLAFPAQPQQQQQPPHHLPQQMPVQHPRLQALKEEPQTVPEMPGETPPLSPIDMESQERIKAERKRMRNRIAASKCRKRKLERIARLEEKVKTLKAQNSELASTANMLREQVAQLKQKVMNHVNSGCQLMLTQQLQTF

B1: ATF5-d1 labeled at the C-terminus (designed binder)
chain: GESKEYKKGSGSKRIAYLRQRIAELRNENHVLESRIQRMEKEKDALQQDRDHLEYELGC(Rhodamine Red C2‑maleimide)
modifications: not fully specified
What is called Kd is a measure of binding affinity in units of concentration. A high value points to lower affinity. Regarding B1, the dissociation constant (Kd) in assay [1] and in assay [2] was above 5000 nM each time.

B2: ATF4-d1 labeled at the C-terminus (designed binder)
chain: GESKEYKKGSGSNQIKTLRTRLSKLRKDNLQLEKDIANLERKAKDLRAEKEQLEYELGC
modifications: also: C59 label by assay: Rhodamine Red C2-maleimide or fluorescein-5-maleimide
notes: solubility linker after the His6 tag; added to the C-terminus for labeling; one molecule for the rhodamine- and the fluorescein-labelled form; the assay tells which label stood there; also called ATF4-d1-Rhodamine; ATF4-d1-FITC; source: E. coli RP3098, purified (Ni-NTA under denaturing conditions, reverse-phase HPLC)
As for B2, the equilibrium dissociation constant (Kd) is 1000 nM in assay [3], 1000 nM in assay [4], 1000 nM in assay [5] and above 5000 nM in assay [6].

The values are drawn from article PMC4335062, “Data-Driven Prediction and Design of bZIP Coiled-Coil Interactions” (PLoS Computational Biology, 2015).
